This passage reports Kd results from patent US20200277392A1 (Hoffmann-La Roche, published 2020).

In general, Kd refers to a measure of binding affinity in units of concentration. Lower therefore signals a tighter complex.

Experiment in all cases: SPR ProteOn XPR36, biotinylated antigen captured on NLC chip, purified Fab as analyte, 1:1 Langmuir
The target in one test is T1, GST TnC hu fn5 B-C fn6 B (human, biotinylated at the C-terminal Avi-tag).
T1 chain: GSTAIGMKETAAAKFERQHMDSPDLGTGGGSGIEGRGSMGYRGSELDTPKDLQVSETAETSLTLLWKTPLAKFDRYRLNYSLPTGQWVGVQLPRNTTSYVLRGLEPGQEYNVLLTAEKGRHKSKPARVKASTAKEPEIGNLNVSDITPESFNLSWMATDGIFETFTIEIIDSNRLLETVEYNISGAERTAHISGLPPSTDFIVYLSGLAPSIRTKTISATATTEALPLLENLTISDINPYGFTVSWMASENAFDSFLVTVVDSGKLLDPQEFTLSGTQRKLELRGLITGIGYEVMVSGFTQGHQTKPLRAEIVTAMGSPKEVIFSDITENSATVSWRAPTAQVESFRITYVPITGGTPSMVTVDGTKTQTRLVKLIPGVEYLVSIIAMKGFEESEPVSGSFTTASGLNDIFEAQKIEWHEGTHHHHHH
How it is done:
(§1) Immobilization of antigens (ligand): Recombinant antigens were diluted with PBST (10 mM phosphate, 150 mM sodium chloride pH 7.4, 0.005% Tween 20) to 10 μg/ml, then injected at 30 μl/minute in vertical orientation. Injection of analytes: For ‘one-shot kinetics’ measurements, injection direction was changed to horizontal orientation, two-fold dilution series of purified Fab were injected simultaneously along separate channels 1-5, with association times of 200 s, and dissociation times of 240 s, respectively. Buffer (PBST) was injected along the sixth channel to provide an “in-line” blank for referencing. Association rate constants (kₒₙ) and dissociation rate constants (koff) were calculated using a simple one-to-one Langmuir binding model in ProteOn Manager v3.1 software by simultaneously fitting the association and dissociation sensorgrams. The equilibrium dissociation constant (KD) was calculated as the ratio koff/kₒₙ.

The target in test [1] is T2, GST huTnC fn5 A1234 BC fn6 B (human, UniProt P24821 984-1798, biotinylated at the C-terminal Avi-tag).
T2 construct: also called Human GST-fused TnC fn5 A1234 BC fn6
T2 sequence: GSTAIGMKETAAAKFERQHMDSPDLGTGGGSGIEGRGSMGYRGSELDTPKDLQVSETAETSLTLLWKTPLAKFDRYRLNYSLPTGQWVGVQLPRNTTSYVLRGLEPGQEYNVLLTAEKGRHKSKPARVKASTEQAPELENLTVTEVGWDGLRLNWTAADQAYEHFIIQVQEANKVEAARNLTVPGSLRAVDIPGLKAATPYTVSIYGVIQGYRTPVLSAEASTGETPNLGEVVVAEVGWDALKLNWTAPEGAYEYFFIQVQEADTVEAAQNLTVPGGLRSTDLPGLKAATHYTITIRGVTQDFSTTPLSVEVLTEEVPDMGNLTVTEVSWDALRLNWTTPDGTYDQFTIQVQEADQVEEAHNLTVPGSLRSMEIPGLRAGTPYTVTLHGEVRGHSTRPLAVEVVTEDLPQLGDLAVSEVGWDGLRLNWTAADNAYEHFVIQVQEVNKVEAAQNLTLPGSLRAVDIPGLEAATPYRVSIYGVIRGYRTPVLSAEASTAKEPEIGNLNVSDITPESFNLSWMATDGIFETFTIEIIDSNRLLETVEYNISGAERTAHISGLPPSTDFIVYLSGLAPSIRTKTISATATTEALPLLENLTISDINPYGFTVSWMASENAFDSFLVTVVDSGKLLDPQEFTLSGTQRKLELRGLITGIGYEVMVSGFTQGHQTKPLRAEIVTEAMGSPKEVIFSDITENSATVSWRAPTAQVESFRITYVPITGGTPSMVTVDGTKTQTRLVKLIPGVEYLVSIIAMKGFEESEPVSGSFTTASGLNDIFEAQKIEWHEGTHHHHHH
As to the method: as §1

In test [2] the target is T3, GST huTnC fn5 mu A124 BC hu fn6 B (human fn5 and fn6, murine A124 BC).
T3 chain: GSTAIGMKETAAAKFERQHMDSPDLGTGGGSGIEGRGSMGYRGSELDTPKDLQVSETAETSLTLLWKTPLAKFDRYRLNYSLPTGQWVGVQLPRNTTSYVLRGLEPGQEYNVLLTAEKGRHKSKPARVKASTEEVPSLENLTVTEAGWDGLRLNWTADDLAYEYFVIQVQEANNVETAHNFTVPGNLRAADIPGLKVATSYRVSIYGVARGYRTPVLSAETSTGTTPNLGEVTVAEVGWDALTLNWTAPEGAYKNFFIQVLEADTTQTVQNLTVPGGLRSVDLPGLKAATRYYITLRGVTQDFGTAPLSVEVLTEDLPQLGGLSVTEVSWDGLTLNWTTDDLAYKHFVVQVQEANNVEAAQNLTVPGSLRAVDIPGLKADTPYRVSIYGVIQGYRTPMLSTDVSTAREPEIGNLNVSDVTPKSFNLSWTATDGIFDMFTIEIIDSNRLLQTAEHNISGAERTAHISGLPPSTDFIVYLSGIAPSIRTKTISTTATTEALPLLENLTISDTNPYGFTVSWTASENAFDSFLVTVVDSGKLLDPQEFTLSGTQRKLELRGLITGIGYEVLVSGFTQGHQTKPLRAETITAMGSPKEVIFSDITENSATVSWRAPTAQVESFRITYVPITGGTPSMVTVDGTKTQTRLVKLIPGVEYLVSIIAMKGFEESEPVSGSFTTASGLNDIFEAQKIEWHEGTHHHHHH
As to the method: as §1

Test [3] deals with T4, GST huTnC fn5 A1234 fn6 B (human, biotinylated at the C-terminal Avi-tag).
T4 chain: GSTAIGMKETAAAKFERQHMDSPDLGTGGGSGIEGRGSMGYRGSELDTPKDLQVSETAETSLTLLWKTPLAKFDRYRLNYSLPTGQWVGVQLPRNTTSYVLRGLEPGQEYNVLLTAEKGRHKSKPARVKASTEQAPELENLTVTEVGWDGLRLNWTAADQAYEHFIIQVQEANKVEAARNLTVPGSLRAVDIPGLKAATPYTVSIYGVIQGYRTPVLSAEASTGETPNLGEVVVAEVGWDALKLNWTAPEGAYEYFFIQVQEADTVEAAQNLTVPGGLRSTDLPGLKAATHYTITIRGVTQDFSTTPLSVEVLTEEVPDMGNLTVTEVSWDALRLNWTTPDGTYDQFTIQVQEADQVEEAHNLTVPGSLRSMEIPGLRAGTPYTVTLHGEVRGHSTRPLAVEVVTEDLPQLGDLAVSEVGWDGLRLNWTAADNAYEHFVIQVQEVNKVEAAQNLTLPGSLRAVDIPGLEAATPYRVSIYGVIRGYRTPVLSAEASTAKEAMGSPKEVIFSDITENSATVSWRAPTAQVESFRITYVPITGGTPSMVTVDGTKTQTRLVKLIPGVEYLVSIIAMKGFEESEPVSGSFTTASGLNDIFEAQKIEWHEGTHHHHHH
How it is done: as §1

A further test concerns the target T5, huTnC A4 B (human, biotinylated at the C-terminal Avi-tag).
T5 chain: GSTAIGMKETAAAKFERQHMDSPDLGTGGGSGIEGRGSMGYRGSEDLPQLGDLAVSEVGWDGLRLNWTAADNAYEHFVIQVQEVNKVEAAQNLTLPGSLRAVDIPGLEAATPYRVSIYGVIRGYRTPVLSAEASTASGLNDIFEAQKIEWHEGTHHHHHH
How it is done:
as §1

The target of another test is T6, huTnC A1 B (human, biotinylated at the C-terminal Avi-tag).
T6 chain: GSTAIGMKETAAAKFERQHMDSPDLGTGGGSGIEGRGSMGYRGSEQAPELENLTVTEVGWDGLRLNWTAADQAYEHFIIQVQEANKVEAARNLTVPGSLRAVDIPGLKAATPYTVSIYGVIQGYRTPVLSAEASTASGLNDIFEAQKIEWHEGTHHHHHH
As to the method: as §1

B1: anti-TnC clone 11C7, purified Fab (Fab, V domains shown)
VH: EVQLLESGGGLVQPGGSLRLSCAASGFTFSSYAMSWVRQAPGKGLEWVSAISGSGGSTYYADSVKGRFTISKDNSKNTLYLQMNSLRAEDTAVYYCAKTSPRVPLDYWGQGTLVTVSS
VL: SSELTQDPAVSVALGQTVRVTCQGDSLRSYYASWYQQKPGQAPVLVIYGKNNRPSGIPDRFSGSSSGNTASLTITGAQAEDEADYYCNSINSTRNEVFGGGTKLTVL
As for B1, the figures for the Kd (with GST TnC hu fn5 B-C fn6 B; in test [1]; in test [2]) were 1 nM, 2.3 nM and 1.9 nM, respectively.

B2: anti-TnC clone 18D4, purified Fab (Fab, V domains shown)
VH: QVQLVQSGAEVKKPGSSVKVSCKASGGTFSSYAISWVRQAPGQGLEWMGGIIPIFGTANYAQKFQGRVTITADKSTSTAYMELSSLRSEDTAVYYCAKGNFYGGLDYWGQGTTVTVSS
VL: DIQMTQSPSTLSASVGDRVTITCRASQSISSWLAWYQQKPGKAPKLLIYDASSLESGVPSRFSGSGSGTEFTLTISSLQPDDFATYYCQQNKKFPSGTFGQGTKVEIK
Consider B2, for which the Kd in test [3] stood at 5 nM; in the test with huTnC A4 B, 2 nM; with huTnC A1 B, 5.6 nM; in test [1], 4 nM; in test [2] it was 11.2 nM.
